Legend:
[1] = biological target: HLA-B*40:01; experiment: IEDB peptide-MHC binding, purified MHC/competitive/radioactivity; filed as Kd, often an IC50 or EC50 that approximates it; ≥ and ≤ were set here for values at or beyond the usual limits of such assays
[2] = biological target: HLA-B*44:02; experiment: as above
[3] = biological target: HLA-B*44:03; experiment: as above
[4] = biological target: HLA-A*02:01; experiment: IEDB peptide-MHC binding, purified MHC/competitive/fluorescence; ≥ and ≤ were set here for values at or beyond the usual limits of such assays
[5] = biological target: HLA-A*11:01; experiment: IEDB peptide-MHC binding, purified MHC/direct/fluorescence; filed as Kd, often an IC50 or EC50 that approximates it; ≥ and ≤ were set here for values at or beyond the usual limits of such assays
[6] = biological target: HLA-A*01:01; experiment: as above; conditions: source organism: Human immunodeficiency virus 1
[7] = biological target: HLA-B*15:01; experiment: as above
[8] = biological target: HLA-A*29:02; experiment: IEDB peptide-MHC binding, purified MHC/competitive/radioactivity; filed as Kd, often an IC50 or EC50 that approximates it; ≥ and ≤ were set here for values at or beyond the usual limits of such assays
[9] = biological target: HLA-A*11:01; experiment: as above; conditions: source organism: SARS coronavirus Tor2
[10] = biological target: HLA-A*31:01; experiment: as above; conditions: source organism: SARS coronavirus Tor2
[11] = biological target: HLA-A*03:01; experiment: as above; conditions: source organism: SARS coronavirus Tor2
[12] = biological target: HLA-A*24:02; experiment: as above
[13] = biological target: HLA-A*01:01; experiment: as above
[14] = biological target: HLA-A*33:01; experiment: as above; conditions: source organism: SARS coronavirus Tor2
[15] = biological target: HLA-A*68:01; experiment: as above; conditions: source organism: SARS coronavirus Tor2
[16] = biological target: HLA-A*23:01; experiment: as above
[17] = biological target: HLA-A*26:01; experiment: as above
[18] = biological target: HLA-A*30:02; experiment: as above
[19] = biological target: HLA-A*32:01; experiment: as above
[20] = biological target: HLA-A*02:02; experiment: as above; conditions: source organism: Vaccinia virus WR
[21] = biological target: HLA-A*02:03; experiment: as above; conditions: source organism: Vaccinia virus WR
[22] = biological target: HLA-A*02:06; experiment: as above; conditions: source organism: Vaccinia virus WR
[23] = biological target: HLA-A*30:01; experiment: as above
[24] = biological target: HLA-A*02:01; experiment: IEDB peptide-MHC binding, purified MHC/direct/fluorescence; filed as Kd, often an IC50 or EC50 that approximates it; ≥ and ≤ were set here for values at or beyond the usual limits of such assays; conditions: source organism: Vaccinia virus Copenhagen
[25] = biological target: HLA-A*69:01; experiment: as above; conditions: source organism: Vaccinia virus Copenhagen
[26] = biological target: HLA-B*58:01; experiment: as above; conditions: source organism: Vaccinia virus Copenhagen
[27] = source organism: Dengue virus 2 Jamaica/1409/1983
[28] = source organism: Dengue virus 3 Martinique/1243/1999
[29] = source organism: Zaire ebolavirus
[30] = source organism: Human immunodeficiency virus 1
[31] = source organism: SARS coronavirus Tor2
[32] = source organism: Dengue virus 4 Philippines/H241/1956
[33] = source organism: Vaccinia virus WR
[34] = source organism: Dengue virus 1 Brazil/97-11/1997
[35] = source organism: Vaccinia virus Copenhagen
[36] = source organism: Lymphocytic choriomeningitis virus (strain Armstrong)
[37] = source organism: Mammarenavirus guanaritoense
[38] = source organism: Mammarenavirus brazilense
[39] = source organism: Mammarenavirus mopeiaense
[40] = source organism: Mammarenavirus juninense
[41] = source organism: Lassa virus GA391

TESHNQTFL
Kd [1, 27]: 16.3 nM

GEIGAIALDF
Kd [2, 28]: 13.6 nM
Kd [3, 28]: 8.92 nM

DFLLQRWGG
IC50 [4, 29]: 16800 nM

TVLDVGDAY
Kd [5, 30]: 436 nM
Kd [6]: 10200 nM
Kd [7, 30]: 170 nM

TVAYFNMVY
Kd [8, 31]: 3.81 nM
Kd [9]: 60.5 nM
Kd [10]: ≥ 56900 nM
Kd [11]: 41.3 nM
Kd [12, 31]: 11000 nM
Kd [13, 31]: 123 nM
Kd [14]: ≥ 52000 nM
Kd [15]: 75.9 nM
Kd [16, 31]: 14100 nM
Kd [17, 31]: 14.2 nM
Kd [18, 31]: 71 nM

IEETNMITL
Kd [1, 32]: 11.9 nM

LSNYIVSIF
Kd [19, 33]: 111 nM

NLEDLIEWA
IC50 ([4]; source organism: Vaccinia virus): ≥ 137000 nM

AHGSTLAGV
IC50 [4, 29]: 59900 nM

LVINRLGAD
IC50 [4, 33]: ≥ 131000 nM

TKIDSMFLM
IC50 ([4]; source organism: Variola virus): 38000 nM

PNERRAWNSL
Kd ([19]; source organism: Dengue virus 4 Dominica/814669/1981): 1300 nM

HTSGPSVMA
IC50 ([4]; source organism: Sudan ebolavirus): ≥ 203000 nM

PVILSLPRI
IC50 ([4]; source organism: Variola virus): 1870 nM

RLGYILEDI
Kd [19, 32]: 7180 nM

MENKAWLVH
Kd ([3]; source organism: Dengue virus 2 16681-PDK53): 168 nM

VTLRKERLA
IC50 [4, 29]: ≥ 360000 nM

RENLLLGVGL
Kd [1, 28]: 2.47 nM
Kd [2, 28]: 21.4 nM
Kd [3, 28]: 292 nM

GEIGAVTLDF
Kd [1, 32]: 73 nM
Kd [2, 32]: 17 nM
Kd [3, 32]: 21.6 nM

GTAKLRWFVE
Kd [19, 34]: ≥ 21100 nM

VISNSVAQA
IC50 [4, 29]: 5790 nM

LETLLLLTL
Kd [1, 27]: 5.76 nM
Kd [2, 27]: 609 nM
Kd [3, 27]: 1340 nM

REDQWCGSLI
Kd [2, 27]: 373 nM
Kd [3, 27]: 888 nM

VIPVYQVNN
IC50 [4, 29]: ≥ 340000 nM

SIINSNVTW
Kd ([19]; source organism: Vaccinia virus L-IPV): 11.1 nM

DKIDQIIHD
IC50 [4, 29]: ≥ 387000 nM

KELKCGSGI
Kd [1, 27]: 206 nM
Kd [2, 27]: 678 nM

ILYYLSAKI
Kd [19, 35]: 8.87 nM

KEVALLRTY
Kd [2, 32]: 2.63 nM
Kd [3, 32]: 63.6 nM

TTFAEGVVA
IC50 [4, 29]: 50200 nM

DNSTHNTPV
IC50 [4, 29]: ≥ 456000 nM

VMYAFTTPL
Kd [20]: 0.573 nM
Kd [21]: 1.28 nM
Kd [19, 33]: 0.291 nM
Kd [22]: 5.71 nM

FEIMDLEKRH
Kd [1, 27]: 590 nM

DLMGVPYCNY
Kd [8, 36]: 147 nM
Kd [13, 36]: 4550 nM
Kd [19, 36]: ≥ 53000 nM
Kd [23, 36]: ≥ 68000 nM
Kd [17, 36]: 163 nM
Kd [18, 36]: 544 nM

EEMFKKRNLT
Kd [3, 28]: 4530 nM

IHAHHQWMTT
Kd [19, 34]: ≥ 26800 nM

AATEAEKQL
IC50 [4, 29]: ≥ 436000 nM

AGISYKDREW
Kd [2, 32]: 843 nM
Kd [3, 32]: 4170 nM

FEKQLGQIML
Kd [1, 34]: 144 nM

KTINYSFFL
Kd [19, 33]: ≤ 1 nM

GTDPYRPSF
Kd [8, 37]: 11000 nM
Kd [13, 37]: 7150 nM
Kd [19, 37]: 2430 nM
Kd [23, 37]: ≥ 30300 nM
Kd [17, 37]: ≥ 77900 nM
Kd [18, 37]: 5280 nM

DRYPANAIV
Kd ([5]; source organism: SARS-CoV1): ≥ 25400 nM

ELLGYCVSLF
Kd [8, 38]: 9340 nM
Kd [13, 38]: 3600 nM
Kd [19, 38]: 11000 nM
Kd [23, 38]: 1880 nM
Kd [17, 38]: 315 nM
Kd [18, 38]: 17400 nM

LCLSGEGWPY
Kd [12, 39]: ≥ 70300 nM
Kd [19, 39]: ≥ 53200 nM
Kd [16, 39]: ≥ 70000 nM
Kd [23, 39]: ≥ 70400 nM
Kd [17, 39]: ≥ 69700 nM

LEKAANVQW
Kd [2, 32]: 58.4 nM
Kd [3, 32]: 392 nM

DLGPAFTEL
Kd [24]: 219 nM
Kd [25]: 22.2 nM
Kd [7, 35]: ≥ 27700 nM
Kd [26]: 8710 nM

FYTTTGIGY
Kd [8, 31]: ≥ 46200 nM
Kd [12, 31]: ≥ 45800 nM
Kd [13, 31]: 242 nM
Kd [16, 31]: ≥ 60600 nM
Kd [17, 31]: 153 nM
Kd [18, 31]: ≥ 93800 nM

IFINKLNGA
IC50 [4, 35]: 3280 nM

LDEWSVATFY
Kd [8, 31]: 95.2 nM
Kd [12, 31]: ≥ 32900 nM
Kd [13, 31]: 2380 nM
Kd [16, 31]: ≥ 47900 nM
Kd [17, 31]: ≥ 21400 nM
Kd [18, 31]: 495 nM

LFQFFVFLV
Kd [8, 40]: 437 nM
Kd [12, 40]: 18800 nM
Kd [13, 40]: 531 nM
Kd [16, 40]: 15700 nM
Kd [17, 40]: ≥ 57200 nM
Kd [18, 40]: 986 nM

EFSRSILWDY
Kd [8, 37]: 1130 nM
Kd [13, 37]: 748 nM
Kd [19, 37]: ≥ 21500 nM
Kd [23, 37]: 1400 nM
Kd [17, 37]: 10300 nM
Kd [18, 37]: 210 nM

PVSIINNAVY
Kd [8, 31]: 101 nM
Kd [12, 31]: ≥ 70300 nM
Kd [13, 31]: 10400 nM
Kd [16, 31]: ≥ 70000 nM
Kd [17, 31]: 1580 nM
Kd [18, 31]: 601 nM

VFRTSTPKVV
Kd [8, 41]: ≥ 71400 nM
Kd [12, 41]: ≥ 70300 nM
Kd [13, 41]: ≥ 70400 nM
Kd [16, 41]: ≥ 70000 nM
Kd [17, 41]: ≥ 69700 nM
Kd [18, 41]: ≥ 69700 nM

FVSLAIDAY
Kd [8, 31]: 21.6 nM
Kd [12, 31]: 17300 nM
Kd [13, 31]: 2450 nM
Kd [16, 31]: ≥ 28800 nM
Kd [17, 31]: 1730 nM
Kd [18, 31]: 897 nM

CGSVGFNIDY
Kd [8, 31]: 774 nM
Kd [12, 31]: ≥ 70300 nM
Kd [13, 31]: 7300 nM
Kd [16, 31]: ≥ 70000 nM
Kd [17, 31]: ≥ 20700 nM
Kd [18, 31]: 371 nM

LEENMEVEI
Kd [1, 32]: 82.6 nM

SKGWHDWQQV
Kd [19, 28]: 1400 nM

DLMSMSDGEF
Kd [8, 37]: 8870 nM
Kd [13, 37]: ≥ 41200 nM
Kd [19, 37]: ≥ 22900 nM
Kd [23, 37]: ≥ 70400 nM
Kd [17, 37]: 673 nM
Kd [18, 37]: 1920 nM

STMDVNHPI
Kd [19, 33]: 7.42 nM

FSNSGADVLY
Kd [8, 31]: 74.9 nM
Kd [12, 31]: ≥ 70300 nM
Kd [13, 31]: 15.3 nM
Kd [16, 31]: ≥ 70000 nM
Kd [17, 31]: 3560 nM
Kd [18, 31]: 9.14 nM

CEPRSGIDF
Kd [3, 32]: 901 nM

EELPDTIETL
Kd [1, 34]: 166 nM

KMSYSSVMI
Kd [19, 33]: 14 nM

RYQVVECKEV
Kd [8, 36]: ≥ 71400 nM
Kd [12, 36]: ≥ 70300 nM
Kd [13, 36]: ≥ 70400 nM
Kd [16, 36]: ≥ 70000 nM
Kd [17, 36]: ≥ 69700 nM
Kd [18, 36]: 159 nM

GESSSNPTI
Kd [1, 32]: 16.8 nM
Kd [2, 32]: 75.2 nM

EERDDTLTI
Kd [3, 34]: 1430 nM

VELPNSLEEL
Kd [1, 34]: 29.2 nM

TNSVIIMAY
Kd [8, 31]: 84.5 nM
Kd [12, 31]: ≥ 77600 nM
Kd [13, 31]: ≥ 25800 nM
Kd [16, 31]: ≥ 77800 nM
Kd [17, 31]: 17300 nM
Kd [18, 31]: 2120 nM

NELNHILLE
Kd [3, 34]: 15300 nM
